{"source": "the DeepSol protein solubility set", "data": [{"assay": "soluble on expression in E. coli; label from the status in PepcDB or PDB records", "values": [{"sequence": "MGSDKIHHHHHHMELFRLHYFLELCKVKQFTKAAENLAISQAALSKQIKILEATLGAELFNRQGQTTTLTPAGLILEKYCWRITNELVSIEEELKEINHSSNHIYVATYLCDLEYKLNDLLMTTLTDRSSNLQVHTIITENILQSLETMDADFGISFADLPLPEHIGKIDLFTANYQFILRNDHPALAKATTEEILKELTMYPFVRLNTEFSEQNKLTNWLDTTFSNFSPEKVIQVDTLSLITHLVSHSDSFAIVPEYTNIQLLDNSIHTLTYQELPKRNMAVYYLKERYMSRQLQQLLAECQKQFQ", "soluble on expression in E. coli": "not soluble"}, {"sequence": "MGSDKIHHHHHHMELNEFLDKAYAVLRRLDAVLPPEPGHTDWNALAFRWQSAGKKGFLEHLPDPHTFPLARLAGVGRQTELLVRNTEQFIAGRPANNVLMSGARGTGKSSLVKALLHEYADKGLRLIEVDKSDLIGLPYLLTLLKERPEKFIVFCDDLSFESGDETYKALKTALDGGLSQRCANVLVYATSNRRHLMPEYFDENAGTTGMRGEIHQKEAVEEKISLSDRFGLWLSFYPFDQNDYLAAVQNWLEDFGVPYDETAQMAALQWAQTRGSRSGRSAWQFACDWAGRLPKQRAL", "soluble on expression in E. coli": "not soluble"}, {"sequence": "MGSDKIHHHHHHMELQLMQWQVGDLPFFYRCQPQPSNAPYGLPDSLPFCLEFDSALGLIRQSPNTQVEAALERCYQHGSTISGMMDSGGIGQQYARDFLDFIAHHETDLTGKRVLEIGCGTGYLLSLLKQKGADVLGIEPGAQGQGGQQRHGVPIIDGFFPHPKAEGKFDLIVAYAVLEHIGEPQGFLEKIADSLAPDGVAYIAVPDCAPYIENGDISCLLHEHWSYFDASSLQRLLEVSGFAAAVQPAGFGGSIYARAVRVSHKTKPVNDEIDLAGNGFERFRSLALGAGQRLERFLAGPGQAGIYVPGRMINLLASLDSVDLAQVRLFDDNEALTGLYFPGMPNPIEDFSGLVERPPARLLIATKSFHFQIADRIEHASVEVPLLAWSDLFLVAAPK", "soluble on expression in E. coli": "not soluble"}, {"sequence": "MGSDKIHHHHHHMELRDLQIFKCVAHHKSITGAAKELNYVQSNVTARIKQLENELKTPLFNRHKKGVSLSPEGRKMIEYVNKILKDVEELEQVFLDTEIPSGILKIGTVETVRILPTIIASYYKKYPNVDLSLQAGLTEELIKKVMNHELDGAFISGPLKHSILEQYDVYTEKLTLVTSNKTFNIEDFSTTPILVFNQGCGYRSRLEQWLKDEGVLPNRMMEFNILETILNSVALGLGITVVPESAVMHLAVQGKVYCHPLPEKDSCISTIFIRHKDAYLTNSMRSLLKTIVEHKNMSMA", "soluble on expression in E. coli": "not soluble"}, {"sequence": "MGSDKIHHHHHHMELRGIWLTNVDSKILHSRDKIAEAMNFLVDTGFNVIFPVVWNKAFTLYPSQLMETTFGQEIDPLYKGRDPLAEVIIEAQRVGLKVIPWFEYGFVSSYKQNGGLILSKKPEWIARERKGNLLVKNGFEWMNALDEEVQNFLIDLVLEVVRNYDIDGIQGDDRMPAFPSEGGYDAKTVGRYRQQFSCHPPQNNKDHKWLQWRANILTDFLARLYGKVKAVKPNILVSMAPSFYKWGFNEYLQDYPTWINREVVDIVHPQLYRRDFSSYKSLVEQLVKQQFIATHLNKIFPGILIKIGSYRISMDYLLEAIAYNRSVGINGEVLFFYEGLRENNDVLAKALRKYVYN", "soluble on expression in E. coli": "not soluble"}, {"sequence": "MGSDKIHHHHHHMELRHLRHFIVLARLKSFSKAANELHLAQPSLSRSIQKMEERLGASLLARDEKHFALTEYGRLVLAQGELIVSQLEYLESEIKTKQGLEKAKLVIGASPIPSNSIIGPAVGRFIRDNPDISLELKVESWSRLYKLLLKGELDMFIAETNATLLDQRDNVITQCLPQSQAIFCCRPHHPLTRLKTVYLPSLRDYPVGMPSAMPQLLRQRFEDLFEEDRHDFVGLVKYAQFQPIKSAIKECDMVVITPDISVREELASGELVALDVVGVPNIKASFSVVSMKNRRLSHSAEQFVDSLLTHSSAKAVGF", "soluble on expression in E. coli": "not soluble"}, {"sequence": "MGSDKIHHHHHHMEMMRDAVQFEPADSRVTRPSFWSSLPERWTSDVEETLVCCHVRQETHDVKSFFFHSPDGRAFVFEPGQFITLELEIEGETINRCYTISSSPARPHTLSITVKRVPGGKVSNWLHDNVRPGTPIRVLGPAGEFTCARHPARKYLFLSAGSGITPLMSMSRAHHDLGEDRDIVFVHSARTPDDIIFSRELDLIASNHANFRTSFVCESVGARTSWPGVTGFLSLPLLKLIAPDFMEREIFTCGPAPYMKAVRDLLDEGGFDRRRYHEESFSFETLTADGPADAPAPDTGVASAPHGIADMAAFSVSFAKSRREIVCSSGQHVLEAARQSGVRLPASCTQGMCGTCKVKLVSGQVEMKHNGGIRQREIDQGMVLLCCSKPLSDLVIDK", "soluble on expression in E. coli": "not soluble"}]}]}
